Assay results reported in the nanobody polyreactivity screen of Harvey et al. (2022).

Assay: yeast display, Sf9 membrane polyspecificity reagent, FACS + sequencing; frameworks hold sequencing errors
In short: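 Genes from sorted yeast were amplified by colony PCR, read by MiSeq 2 × 250 sequencing and filtered on CDR length. These cells carried a synthetic nanobody library in Saccharomyces cerevisiae BJ5465 and were sorted by FACS into low and high (top ~1%) gates on anti-HA and streptavidin fluorescence. Polyreactivity is labelled according to the gate of origin.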

QVQLVESGGGLVQAGGSLRLSSAASGFTFRRYAMGWYRQAPGKERELVAAISTSGGNTYYADSVKGRFTISRDNAKNTVYLQMNSLKPEDTAVYYCYARRKDNGHGTPFDDYWGQGTQVTVSS
polyreactivity (PSR sort gate): high polyreactivity

QVQLVESGGGLVQAGGILRLSCAASGFIFEYYAMGWYRQAPGKERELVAAINGGGGNTYYADSVKGRFTISRDNAKNTVYLQMNSLKPEDTAVYYCNAKRRKYRYDYWGQGTQVTVSS
polyreactivity (PSR sort gate): high polyreactivity

QVQLVESGRGLVQAGGSLRLSCAPSGRISAQYTMGWYRQAPGKERELVAAITWSGTNTYYADSVKGRFTISRDNAKNTVYLQMNSLKPEDTAVYYCATAVYLVIFEYDYWGQGTQVTVSS
polyreactivity (PSR sort gate): low polyreactivity

QVQLVESGGGLVQAGGSLRLSSAASGSIFVKNARGWYRQAPGKVRELVARISFSGGSTYYADSVKGRFTISRDNAKNTVYLQMNSLKPEDTAVYYCAKTVLRTEYGWWIKFDYWGQVTQVTVSS
polyreactivity (PSR sort gate): low polyreactivity

QLQLVESGRGLVQAGGSLRLSCAASGSTFQLYTMGLYRQAPGKERELVAAITGSGGSTYYADSVKGRFTISRDNAKNTVYLQMNSLKPEDTAVYYCAAKSSFRIAWEYYYWGQGTQGTVSS
polyreactivity (PSR sort gate): high polyreactivity

QVQLVESGGGLDQAGGSLRLSSAASGLTFGGNAMGWYRQAPGKERELVAAISWSDDTTDYADSVKGRFTISRDNAKNTVYLQMNSLKPEDTAVYYCAARLPFEHVEYWGQGTQVTVSS
polyreactivity (PSR sort gate): low polyreactivity

QVQLQESSGGLVQAGGSLRMSCAASGTIFHFHIIGWYRQAPRKEREFVAASSYGTRTYYADSVKGRFTISRDNAKNTVYLQMNSQKPEDTAVYYCAVYDYLEVYCWYWGQGTQVTVRS
polyreactivity (PSR sort gate): low polyreactivity

QVQLVESGGGLVQAGGSLRLSCAASGFIFNSYAMGWYRQAPGKERELVAAISRRGSSTYYADSVKGRFTISRDNAKNTVYLQMNSLKPEDTAVYYCAKRDRSTSWYLRDYWGQGTQVTVSS
polyreactivity (PSR sort gate): high polyreactivity

QVQLVESGGGLVQAGGSLRLSCAASGYTFESYTMGWYRQAPGKEREFVAVISSSDTSTSYADSVKGRFTISRDNAKNTFYLQMNSLKPVDTAVYYCAAYSSPYYITYYWYNYDYWGQGTQVTVSS
polyreactivity (PSR sort gate): low polyreactivity

QVQLVESGGGLVQAGGSLRLSCAASGRIFNAYAMGWYRQAPGKERELVATISWRTGSTYYADSVKGRFTISRDNAKNTVYLQINSLKPEDTAVYYCNAKVGSYGAQGYRFAYNYWGQGTQVTVSS
polyreactivity (PSR sort gate): high polyreactivity

QVQLVESGGGLVQAGGSLRLICAASGSTFTRYAMGWYRQAPRKERELVAAISRGGSTNYADSVKGRFTISRDNAKNTVYLQMNSLKPEDTAVYYCAAARYRYYLGFGYDYWGQGTQVTVSS
polyreactivity (PSR sort gate): high polyreactivity

QVQLVESGGGLVQAGGSLRLSCAASGYIFGSYVMGWYRQAPGKERELVAAITRIGASTYYADSVKGRFTISRDNAKNNVYLQMNSLKPEDTAVYYCATDQGGYYENDYWGQGNQVTVSS
polyreactivity (PSR sort gate): low polyreactivity

QVQLVESGGGLVQAGGSLRLSCAASGSTFPDYAMGWYRQAPGKERELVAAISYRGGSTNYADSVKGRFTISRDNAKNTVYLQMNSLKPEDTAVYYCATDDYYPQPFYYEYDYWGQGSQVTVSS
polyreactivity (PSR sort gate): low polyreactivity

QVQLVESGGGLVQAGGSLRLSCAASGRILFHYAMGGSRPAPGKERELVAAITWRGGGTHYADSVKGRFTISRDNAKNTVYLQMNSLKPEDNAVYYCAADGWTYVYDYGYWGQGTQVTVSS
polyreactivity (PSR sort gate): low polyreactivity

QVQLVESGGGLVQAGGSLRLSCAASGRIFRDYAMGWYRQAPGNERELVAAISWSGGSTYYADSVKGRFTISRDNAKNTVYLQMNSLKPEDTAVYYCAGDYYGGDSYRYDYWGQGTQVTVSS
polyreactivity (PSR sort gate): low polyreactivity

QVQLVESGGGLVQAGGSLRLSCAASGIIFYLNAMGWYRQAPGKERELVAGITYSGGSTYYADSVKGRFTISRDNAKNTVYLQMNSLKPEDTAVYYCAARTKWYIFLYDYWGQGTQVTVSS
polyreactivity (PSR sort gate): low polyreactivity

QVQLVESGGGLVQAGGSLRLSCAASGLTFQENAMGWYRQAPGKERELVASITPIGGSTYYADSVKGRFTISRDNAKNTVYLQMKSLKPEDTAVYYCAARSPIYATYGHDYWGQATQVTVSS
polyreactivity (PSR sort gate): low polyreactivity

QVQLVESGGGLVQAGGSLRLSCAASGRIFHYNAMGSYRQAPVKERELVAAISTGGSTNYADSVKGRFTISRDNAKNTVYLQMNSLKPEDTAVYYCAAGPDPLGEDYWGQGTQVTVSS
polyreactivity (PSR sort gate): low polyreactivity

QVQLVESGGGLVQAGGSLRLSCAASGFTLYRYAMVWYRQAPGKERELVAAISRGSSTNYADSVKGRFTISRDNAKNTVYLQMNSLKPEDTAVYYCAARIVTLGSSRARSFTEYYWGQGTQVTVSS
polyreactivity (PSR sort gate): high polyreactivity

QVQLVESGGGLVQAGGSLRLSCAASGITSRYYAMGWYRQAPGKERELVAAITSDGRTNYADSVKGRFTISRDNAKNTVYLQMNSLKPEETAVYYCAVARYPYRYDYWGQGTQVTVSS
polyreactivity (PSR sort gate): high polyreactivity

QVQLVESGGGLVQAGGSLRLTCAASGSTFQTYVMGLYIQAPGKERELVAAISSGGSTNYADSVKGRFTISRDNAKNNVYLLMKSLKPEDTAVYYCAAVYWAWGKNEYEYWGQGTQVTVSS
polyreactivity (PSR sort gate): low polyreactivity

QVQLVESGGGLVQAGGSLRLSCAASGRIFPYYAMGWYRQAPGKERELVATIRGRVGTTYYADSVKGRFTISRDNAKNSVYLEMNSLKPEDTAVYYCNTDNYSPYRYVGLYDYWGQGTQVTVSS
polyreactivity (PSR sort gate): high polyreactivity

QVQLVESGGGLVQAGGSLRLSCAVSGRIFRRNVMGWYRQAPGKDRELVAGISDSGDSTYYADSVKVRFTISRDNAKNTVYLQMNSLKPEDTAVYYCNARYSTTYYGTIYRGMDYWGQGTQVNVSS
polyreactivity (PSR sort gate): high polyreactivity

QVQLVESGGGVVQAGGSLRLSCAASGSILNNYAMGWYRPAPGKERELVAAISSSGGTNYADSVKGRFTISRDNAKNTVFLQMNSLKPEDTAVYYCNADVLDGGYVYWGQGTQVTVSS
polyreactivity (PSR sort gate): low polyreactivity

QDQLVESGGGLVQAGGSLRLSCAASGSTFGYYAMGWYRQAPRKERELVAAISWRGGSTSYADSVKGRFTISRDNAKNTVYLQMNSLKPEDTAVYYCAAPRGTLTSWAGNYWGQGTQVTVSS
polyreactivity (PSR sort gate): high polyreactivity

QVQLVESGGGLVQAGGSLRLSCAASGSTFHDYAMGLYRQAPGKERELVAAISNSGGSTYYADSVKGRFTISRDNAKNTVYLQMNSLKPEDTAVYYCAARKYVAGHKYIMNYWGQGTQVTVSS
polyreactivity (PSR sort gate): low polyreactivity

QVQLVESGGGLVQAGGSLRLSCAASGRIFEVYDMGWYRKAPGKERELVAAISESDDNTYYADSVKGRFTISRDNAKNTVYLQMNSLKPEDTAVYYCNADVPGDTGWWGFDYWGQGTQVTVSS
polyreactivity (PSR sort gate): low polyreactivity

QVQLVESGGGLVQAGGSLRLSCAASGRIFYNYAMGWYRQAPGKERELVAAISGSGGSTYYADSVKGRFTISRDNAKNTVYLQMNSLKPEDTAVYYCNARDVVYLITPYFLVYVNLDYWGQGTQVTVSS
polyreactivity (PSR sort gate): low polyreactivity

QFQLEESGGGLVQAGGSLRLSCAASGITFVDYAMGWYRQAPGKERELVAAITTGGSTNYADSVKGRFTISRDNAKNTVYLQMNSLKPEDTAVYYCNKRPVILYDYWGQGTQVTVSS
polyreactivity (PSR sort gate): low polyreactivity

QVQLVESGGGLVQAGGSLRLSCAASGSIFYSNAMGWYRQAPGKERELVAAITLSGRRTYYADSVKGRFTISRDNAKNTVYLQMISLKPEDTADYYCATVPYKTGYKFEYWGQGTQVTVSS
polyreactivity (PSR sort gate): high polyreactivity

QVQLVESGGGLVQAGGSLRLSCAASGSIFGNNAMGWYRQARGKERELVAVITDGGNTYYADSVKGRFTISRDNAKNTVYLQMNSLKPEDTAVYYCNADWWGDSDYWGQGTQVTVSS
polyreactivity (PSR sort gate): low polyreactivity

QVQLVESGGCLVQAGGSLRLSCAASGSIFTKYTMGWYRQAPGRERELVAAITLRGTSTYYADSVKGRFTISRDIAKNTVYLQMNSLKPEDTAVYYCNKLYSWVVAYDYWGQGTQVTVSS
polyreactivity (PSR sort gate): high polyreactivity

QVQLVESGGGLVQAGGSLRLSCAASGRIFDYYAMGWYRQAPGKERELVAVINRDGSTYYADSVKGRFTISRDNAKNTVYLQMNSLKPEDTAVYYCARDSAWAARGPFTDGAYDSWGQGTQVTVSS
polyreactivity (PSR sort gate): low polyreactivity

QVQLVESGGGLVQAGGSLRLSCAASGYTIRYNALGWYRQAPGKERELVAAITQRSGSTYADSVKGRFTISRDNAKNTVYLQMNSLKPEDTAVYYCAARTPGYKLYDYWGQGTQVTVSS
polyreactivity (PSR sort gate): low polyreactivity

QVQLVESGGGLVQAGGSLRLSCAASGSIFTWYAMGWYRQAPGTERELVAAITRGGSTYADSVKGRFTISRDNAKNTVYLQMNSLKPEDTAVYYCNAVYGVYDFNYWGQGTQVTVSS
polyreactivity (PSR sort gate): low polyreactivity

QVQLVDSVGGLVQAGGSLRLSCAASGRIFRYYAMGWYRQAPRKERELVAAITWSGGSTYYADSVKGRFTISRDNAKNTVYLQMNSLKPEDTAVYYCNADSVYAGFDYWGQGTQVTVSS
polyreactivity (PSR sort gate): low polyreactivity

QVQLVESGGGLVQAGGRLRLSCAASGFTFRRYTMGWYRQAPGKERELVAVISASGGSTYYADSEKGRFTISRDNAKNTVYLQMNSLKPEDTAVYYCNAVGTPYGLDEYWGQGTQVTVSS
polyreactivity (PSR sort gate): high polyreactivity

QVQLVESGGGFVQAGGSLRLSCAASGSIFWLYDMGWYRQAAGKVRELVAAISWSTGGTYYADSVKGRFTISRENAKNTVYLQMNSLKPEDTAVYYCNAETYDQYNYWGQGTQVTVSS
polyreactivity (PSR sort gate): low polyreactivity

QVQLVESGGGLVQAGGSLRLSCAASGFTFDTYAMGWSRQAPGKERELVAAISSSGGSTYYADSVKGRFTISRDNAKNTVYLQMNSLKPEDTAVYYCNAYYRYSRGYDYWGQGTQVTVSS
polyreactivity (PSR sort gate): high polyreactivity

QVQLVESGGGLVQAGGSLRLSCAASGRTFWYNARGWYRQAPGKERELVAAITRGGGRTYYADSVKGRFTISRDNAKNTVYLQMNSPKPEDTAVYYCADDSHYDMNYWGQGTQVTVSS
polyreactivity (PSR sort gate): low polyreactivity

KVQLVESGGVLVQAGGSLRLICAASGRTFYGYAMGWSRQAPGKERELVAGITSGGSTTYADSVKGRFTISRDHAKKTVYLQMNSLKPEDTAVYYCAKKWYRTTRAYVFRSYDYWGQGTQVTVSS
polyreactivity (PSR sort gate): high polyreactivity

QVQLVESGGGLVQAGGSLRLSCAASGITLYRYVMGWYRQAPGKERELVADISGRGTSTYYADSVKGRFTISRDNAKNTVYLQMNSLKPEDTAVYYCNAEYTKTGAQREQSFLTRRGPGYDYWGQVTQVTVSS
polyreactivity (PSR sort gate): low polyreactivity

QVQLVESGGRLVQAGGSLRLSCAASGRIFANYAMGWYRQAPGKERELVAAISRSGGSTSYADSVKGRFTISRDNAKNTVYLQMNSLKTEDTAVYYCAATRSRYQPVKYGYWGQGTQVTVTS
polyreactivity (PSR sort gate): high polyreactivity
